Among the data in article PMC5779698, “Identification and analysis of OsttaDSP, a phosphoglucan phosphatase from Ostreococcus tauri” (PLoS ONE, 2018) are stoichiometry N and K0.5 values, retold here.

The term stoichiometry N denotes a count of units in the complex or per binding partner.

In data set [1] the target is OsttaDSP, dual specific phosphatase from Ostreococcus tauri, mature protein lacking the chloroplast transit peptide (Ostreococcus tauri). The experiment in a line: SEC; HiPrep Sephacryl S-300 High-Resolution column, calibrated with a molecular weight kit; affinity-purified mature OsttaDSP, single peak of an estimated 54.4 kDa.
Substrate in the data set “purified protein”: O=[N+]([O-])c1ccc(OP(=O)(O)O)cc1
Nature of the data set: purified protein. Type of data set: biochemical, Ostreococcus tauri. Conditions: pH 7, 37 °C, 2 mM DTT, hyperbolic saturation.

Turning to “OsttaDSP, dual specific phosphatase from Ostreococcus tauri, mature protein lacking the chloroplast transit peptide (enzyme)”, the stoichiometry N in data set [1] was 2.

B1: OsttaDSP (Ostreococcus tauri) (protein)
chain: ATTTTRRGLADDDAYNAAMRAYSASPYEYKHDIGLYYHRIKPFLIVGTQPQTPADVDRLRETEGVTCVFNTQQEKDWKYWNVDYDSVRARAIETGMRHVRYPFEDFSADSLREGLPSAAAMLDAEIERGETVYLHCTAGMGRSPGLAIAYMYWFLDAYNTLDGAYEGLTSIRPCGPKKESIRGATCDLLAAIESDGKVEPLKRELEENEGVVLSIVSKERIQRAVRAMLLSTSDETVAKPWWKVW
notes: mature protein lacking the first 26 residues (predicted chloroplast transit peptide), 245 residues, N-terminal His6 tag kept, synthetic gene, pRSFDuet-1, E. coli BL21(DE3) pLys; homodimer
On to B1, for which the K0.5 in “purified protein” worked out at 22.7 ± 3.4 mM.
